Experiments:
Assay in all cases: EMSA
Details in all cases: tags: MBP fusion
[1] = molecular target: T1, ZFP SBS#270 (synthetic)
T1 chain: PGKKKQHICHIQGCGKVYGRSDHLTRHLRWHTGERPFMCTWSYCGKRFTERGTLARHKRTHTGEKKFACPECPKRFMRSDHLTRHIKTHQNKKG
Description: (§1) Affinity is measured by titrating purified protein against a fixed amount of labeled double-stranded oligonucleotide target. The target typically comprises the natural binding site sequence flanked by the 3 bp found in the natural sequence and additional, constant flanking sequences. The natural binding site is typically 9 bp for a three-finger protein and 2×9 bp +intervening bases for a six finger ZFP. […] For the assay the target is added at a concentration of 1 nM or lower (the actual concentration is kept at least 10-fold lower than the expected dissociation constant), purified ZFPs are added at various concentrations, and the reaction is allowed to equilibrate for at least 45 min. In addition the reaction mixture also contains 10 mM Tris (pH 7.5), 100 mM KCl, 1 mM MgCl2, 0.1 mM ZnCl2, 5 mM DTT, 10% glycerol, 0.02% BSA. (NB: in earlier assays poly d(IC) was also added at […].) The equilibrated reactions are loaded onto a 10% polyacrylamide gel, which has been pre-run for 45 min in Tris/glycine buffer, then bound and unbound labeled target is resolved by electrophoresis at 150V.

[2] = molecular target: T2, ZFP SBS#269 (synthetic)
T2 chain: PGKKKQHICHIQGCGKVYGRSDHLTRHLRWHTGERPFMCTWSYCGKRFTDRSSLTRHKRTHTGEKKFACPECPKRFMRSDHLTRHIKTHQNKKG
Description: as §1

[3] = molecular target: T3, ZFP SBS#205 (synthetic)
T3 chain: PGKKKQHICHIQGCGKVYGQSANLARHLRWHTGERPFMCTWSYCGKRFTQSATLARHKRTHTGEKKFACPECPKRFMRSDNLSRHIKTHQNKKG
Description: as §1

[4] = molecular target: T4, ZFP SBS#238 (synthetic, UniProt P08047)
T4 chain: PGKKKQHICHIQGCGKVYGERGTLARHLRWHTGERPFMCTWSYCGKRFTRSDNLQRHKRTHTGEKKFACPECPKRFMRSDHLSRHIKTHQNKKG
Description: as §1

[5] = molecular target: T5, ZFP SBS#237 (synthetic, UniProt P08047)
T5 chain: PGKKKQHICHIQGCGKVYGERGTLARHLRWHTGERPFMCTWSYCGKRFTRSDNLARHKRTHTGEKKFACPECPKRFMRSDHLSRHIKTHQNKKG
Description: as §1

[6] = molecular target: T6, ZFP SBS#283 (synthetic)
T6 chain: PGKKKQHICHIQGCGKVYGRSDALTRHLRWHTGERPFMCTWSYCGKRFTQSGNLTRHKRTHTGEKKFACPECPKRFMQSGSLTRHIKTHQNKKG
Description: as §1

[7] = molecular target: T7, ZFP SBS#272 (synthetic)
T7 chain: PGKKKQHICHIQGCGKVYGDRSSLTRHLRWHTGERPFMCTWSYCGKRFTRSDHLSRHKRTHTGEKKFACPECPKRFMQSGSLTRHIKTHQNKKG
Description: as §1

[8] = molecular target: ZFP SBS#211 (synthetic)
Description: as §1

[9] = molecular target: T8, ZFP SBS#210 (synthetic)
T8 chain: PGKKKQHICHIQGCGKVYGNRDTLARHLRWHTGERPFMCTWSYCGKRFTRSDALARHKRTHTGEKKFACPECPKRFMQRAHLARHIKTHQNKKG
Description: as §1

[10] = molecular target: ZFP SBS#209 (synthetic)
Description: as §1

[11] = molecular target: T9, ZFP SBS#212 (synthetic)
T9 chain: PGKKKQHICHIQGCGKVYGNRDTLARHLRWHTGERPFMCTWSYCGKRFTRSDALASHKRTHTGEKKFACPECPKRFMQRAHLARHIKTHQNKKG
Description: as §1

[12] = molecular target: T10, ZFP SBS#235 (synthetic)
T10 chain: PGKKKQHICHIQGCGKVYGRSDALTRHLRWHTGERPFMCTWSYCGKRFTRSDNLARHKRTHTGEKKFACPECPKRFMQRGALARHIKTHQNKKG
Description: as §1

[13] = molecular target: T11, ZFP SBS#243 (synthetic)
T11 chain: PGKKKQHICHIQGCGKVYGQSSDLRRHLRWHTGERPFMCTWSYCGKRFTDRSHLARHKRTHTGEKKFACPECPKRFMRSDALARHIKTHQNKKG
Description: as §1

[14] = molecular target: ZFP SBS#239 (synthetic)
Description: as §1

[15] = molecular target: T12, ZFP SBS#207 (synthetic)
T12 chain: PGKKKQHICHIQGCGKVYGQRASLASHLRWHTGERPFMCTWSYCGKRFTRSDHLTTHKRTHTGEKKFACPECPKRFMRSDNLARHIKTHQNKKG
Description: as §1

[16] = molecular target: T13, ZFP SBS#250 (synthetic)
T13 chain: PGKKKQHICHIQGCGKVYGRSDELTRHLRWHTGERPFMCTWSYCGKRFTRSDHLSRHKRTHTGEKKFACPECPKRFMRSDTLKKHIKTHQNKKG
Description: as §1

[17] = molecular target: ZFP SBS#249 (synthetic)
Description: as §1

[18] = molecular target: ZFP SBS#233 (synthetic)
Description: as §1

[19] = molecular target: ZFP SBS#232 (synthetic)
Description: as §1

[20] = molecular target: T14, ZFP SBS#223 (synthetic)
T14 chain: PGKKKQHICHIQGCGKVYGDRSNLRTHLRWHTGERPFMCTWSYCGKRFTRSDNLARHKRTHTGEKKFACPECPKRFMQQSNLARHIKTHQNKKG
Description: as §1

[21] = molecular target: T15, ZFP SBS#225 (synthetic, UniProt P08047)
T15 chain: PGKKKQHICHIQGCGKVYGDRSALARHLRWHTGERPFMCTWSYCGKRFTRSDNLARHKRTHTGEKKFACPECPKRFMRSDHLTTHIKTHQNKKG
Description: as §1

[22] = molecular target: ZFP SBS#289 (synthetic)
Description: as §1

[23] = molecular target: T16, ZFP SBS#236 (synthetic, UniProt P08047)
T16 chain: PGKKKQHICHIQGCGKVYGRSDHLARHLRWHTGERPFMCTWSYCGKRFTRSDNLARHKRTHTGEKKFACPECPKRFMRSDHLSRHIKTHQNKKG
Description: as §1

[24] = molecular target: ZFP SBS#245 (synthetic)
Description: as §1

[25] = molecular target: ZFP SBS#244 (synthetic)
Description: as §1

[26] = molecular target: ZFP SBS#217 (synthetic)
Description: as §1

[27] = molecular target: ZFP SBS#247 (synthetic)
Description: as §1

[28] = molecular target: ZFP SBS#246 (synthetic)
Description: as §1

[29] = molecular target: ZFP SBS#240 (synthetic)
Description: as §1

[30] = molecular target: ZFP SBS#242 (synthetic, UniProt P08047)
Description: as §1

[31] = molecular target: T17, ZFP SBS#293 (synthetic)
T17 chain: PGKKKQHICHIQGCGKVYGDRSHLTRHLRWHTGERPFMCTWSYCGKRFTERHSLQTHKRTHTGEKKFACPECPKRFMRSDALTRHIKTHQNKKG
Description: as §1

[32] = molecular target: T18, ZFP SBS#265 (synthetic)
T18 chain: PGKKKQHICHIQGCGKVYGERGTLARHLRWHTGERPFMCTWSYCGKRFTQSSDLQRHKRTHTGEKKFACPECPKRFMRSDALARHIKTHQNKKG
Description: as §1

[33] = molecular target: T19, ZFP SBS#264 (synthetic)
T19 chain: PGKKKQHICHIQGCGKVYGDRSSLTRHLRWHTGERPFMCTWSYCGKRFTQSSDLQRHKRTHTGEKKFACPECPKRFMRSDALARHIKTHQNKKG
Description: as §1

ZFP SBS#242, sequence (P08047 other isoform, or with tags, fused parts or gaps): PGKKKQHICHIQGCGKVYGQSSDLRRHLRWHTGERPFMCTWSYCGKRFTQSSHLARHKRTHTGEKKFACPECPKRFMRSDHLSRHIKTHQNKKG
ZFP SBS#246 (synthetic), sequence (chain, as listed by the source): as the sequence (P08047 other isoform, or with tags, fused parts or gaps) above, with Q20R, S22D, D23N, R25A, Q50R, S52D, R78Q, D80G, H81N, S83T counted along it
ZFP SBS#289 (synthetic), sequence (chain, as listed by the source): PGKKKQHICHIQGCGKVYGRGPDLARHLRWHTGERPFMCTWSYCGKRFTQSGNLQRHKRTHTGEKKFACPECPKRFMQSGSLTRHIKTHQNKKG
ZFP SBS#217 (synthetic), sequence (chain, as listed by the source): as the sequence (P08047 other isoform, or with tags, fused parts or gaps) above, with S21R, D23A, R25A, Q50D, S51R, H53A, H81N, S83A counted along it
ZFP SBS#249 (synthetic), sequence (chain, as listed by the source): as the sequence (P08047 other isoform, or with tags, fused parts or gaps) above, with Q20R, S22D, D23E, R25T, Q50R, S52D, A55S, H81E, S83R counted along it
ZFP SBS#209 (synthetic), sequence (chain, as listed by the source): as the sequence (P08047 other isoform, or with tags, fused parts or gaps) above, with D23A, R25A, Q50R, S52D, H53A, R78Q, S79R, D80A, S83A counted along it
ZFP SBS#245 (synthetic), sequence (chain, as listed by the source): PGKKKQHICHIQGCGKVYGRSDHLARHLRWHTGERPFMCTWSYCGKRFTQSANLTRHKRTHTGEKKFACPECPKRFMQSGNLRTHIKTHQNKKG
ZFP SBS#233 (synthetic), sequence (chain, as listed by the source): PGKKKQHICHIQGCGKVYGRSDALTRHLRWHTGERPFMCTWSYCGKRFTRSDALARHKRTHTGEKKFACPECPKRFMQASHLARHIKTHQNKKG
ZFP SBS#240 (synthetic), sequence (chain, as listed by the source): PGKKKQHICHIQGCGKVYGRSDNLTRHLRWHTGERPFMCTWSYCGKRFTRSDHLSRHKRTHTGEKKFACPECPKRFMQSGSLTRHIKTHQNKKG
ZFP SBS#211 (synthetic), sequence (chain, as listed by the source): as the sequence (P08047 other isoform, or with tags, fused parts or gaps) above, with D23A, R25A, Q50R, S52D, H53A, R56S, R78Q, S79R, D80A, S83A counted along it

B1: GGGGCCGGG (dsDNA)
DNA 1: GGGGCCGGG
DNA 2: CCCGGCCCC
- Kd [1]: 52.5 nM
- Kd [2]: 5 nM

B2: GAGGTAGAA (dsDNA)
DNA 1: GAGGTAGAA
DNA 2: TTCTACCTC
- Kd [3]: 80 nM

B3: GGGGAGGCC (dsDNA)
DNA 1: GGGGAGGCC
DNA 2: GGCCTCCCC
- Kd [4]: 0.8 nM
- Kd [5]: 0.3 nM

B4: GCAGAAGTG (dsDNA)
DNA 1: GCAGAAGTG
DNA 2: CACTTCTGC
- Kd [6]: 2 nM

B5: GCAGGGGCC (dsDNA)
DNA 1: GCAGGGGCC
DNA 2: GGCCCCTGC
- Kd [7]: 20 nM

B6: GGAGTGGTT (dsDNA)
DNA 1: GGAGTGGTT
DNA 2: AACCACTCC
- Kd [8]: 140 nM
- Kd [9]: 65 nM
- Kd [10]: 35 nM
- Kd [11]: 400 nM

B7: GTAGAGGTG (dsDNA)
DNA 1: GTAGAGGTG
DNA 2: CACCTCTAC
- Kd [12]: 80 nM

B8: GTGGGCGCT (dsDNA)
DNA 1: GTGGGCGCT
DNA 2: AGCGCCCAC
- Kd [13]: 75 nM

B9: GGCGGGGAG (dsDNA)
DNA 1: GGCGGGGAG
DNA 2: CTCCCCGCC
- Kd [14]: 0.4 nM

B10: GAGTGGTTA (dsDNA)
DNA 1: GAGTGGTTA
DNA 2: TAACCACTC
- Kd [15]: 70 nM

B11: GCGGGGGCG (dsDNA)
DNA 1: GCGGGGGCG
DNA 2: CGCCCCCGC
- Kd [16]: 70 nM
- Kd [17]: 20 nM

B12: GGTGTGGTG (dsDNA)
DNA 1: GGTGTGGTG
DNA 2: CACCACACC
- Kd [18]: 100 nM
- Kd [19]: 50 nM

B13: GATGAGTAC (dsDNA)
DNA 1: GATGAGTAC
DNA 2: GTACTCATC
- Kd [20]: 105 nM

B14: TGGGAGGTC (dsDNA)
DNA 1: TGGGAGGTC
DNA 2: GACCTCCCA
- Kd [21]: 6 nM

B15: GCAGAAGCG (dsDNA)
DNA 1: GCAGAAGCG
DNA 2: CGCTTCTGC
- Kd [22]: 800 nM

B16: GGGGAGGGG (dsDNA)
DNA 1: GGGGAGGGG
DNA 2: CCCCTCCCC
- Kd [23]: 0.3 nM

B17: TAAGAAGGG (dsDNA)
DNA 1: TAAGAAGGG
DNA 2: CCCTTCTTA
- Kd [24]: 235 nM
- Kd [25]: 100 nM

B18: GAGGTCGTA (dsDNA)
DNA 1: GAGGTCGTA
DNA 2: TACGACCTC
- Kd [26]: 40 nM

B19: GAAGGGGAG (dsDNA)
DNA 1: GAAGGGGAG
DNA 2: CTCCCCTTC
- Kd [27]: 2 nM
- Kd [28]: 2 nM

B20: GCAGGGGAG (dsDNA)
DNA 1: GCAGGGGAG
DNA 2: CTCCCCTGC
- Kd [29]: 1 nM

B21: GGGGGTGCT (dsDNA)
DNA 1: GGGGGTGCT
DNA 2: AGCACCCCC
- Kd [30]: 1 nM

B22: GTGTGCGGC (dsDNA)
DNA 1: GTGTGCGGC
DNA 2: GCCGCACAC
- Kd [31]: 320 nM

B23: GTGGCTGCC (dsDNA)
DNA 1: GTGGCTGCC
DNA 2: GGCAGCCAC
- Kd [32]: 600 nM
- Kd [33]: 27 nM
